Assay results: patent US20230035659A1, “Compositions and Methods for TTR Gene Editing and Treating ATTR Amyloidosis Comprising a Corticosteroid or Use Thereof” (Intellia Therapeutics, Inc., priority 2019, published 2023)
Strand notation (5' to 3'): a small letter for the sugar, then the base; units joined by * are phosphorothioate-linked, units joined directly phosphodiester-linked; [ ] holds rarer units or linkages, { } end groups; capitals alone tell only the bases. m = 2'-O-methyl; r = 2'-OH (RNA)

B1: G000499: TTR sgRNA modified sequence, Human, SEQ ID NO: 106; guide sequence of CR005303 (nucleic acid)
guide: mU*mG*mA*rArUrCrCrArArGrUrGrUrCrCrUrCrUrGrArGrUrUrUrUrArGrAmGmCmUmAmGmAmAmAmUmAmGmCrArArGrUrUrArArArArUrArArGrGrCrUrArGrUrCrCrGrUrUrArUrCrAmAmCmUmUmGmAmAmAmAmAmGmUmGmGmCmAmCmCmGmAmGmUmCmGmGmUmGmCmU*mU*mU*mU
B2: G000486: TTR sgRNA modified sequence, Human, SEQ ID NO: 93; guide sequence of CR003339 (nucleic acid)
guide: mA*mC*mA*rCrArArArUrArCrCrArGrUrCrCrArGrCrArGrUrUrUrUrArGrAmGmCmUmAmGmAmAmAmUmAmGmCrArArGrUrUrArArArArUrArArGrGrCrUrArGrUrCrCrGrUrUrArUrCrAmAmCmUmUmGmAmAmAmAmAmGmUmGmGmCmAmCmCmGmAmGmUmCmGmGmUmGmCmU*mU*mU*mU
B3: G000494: TTR sgRNA modified sequence, Human, SEQ ID NO: 101; guide sequence of CR003360 (nucleic acid)
guide: mG*mU*mG*rArGrUrCrUrGrGrArGrArGrCrUrGrCrArUrGrUrUrUrUrArGrAmGmCmUmAmGmAmAmAmUmAmGmCrArArGrUrUrArArArArUrArArGrGrCrUrArGrUrCrCrGrUrUrArUrCrAmAmCmUmUmGmAmAmAmAmAmGmUmGmGmCmAmCmCmGmAmGmUmCmGmGmUmGmCmU*mU*mU*mU
B4: G000480: TTR sgRNA modified sequence, Human, SEQ ID NO: 87; guide sequence of CR003353 (nucleic acid)
guide: mA*mA*mA*rGrGrCrUrGrCrUrGrArUrGrArCrArCrCrUrGrUrUrUrUrArGrAmGmCmUmAmGmAmAmAmUmAmGmCrArArGrUrUrArArArArUrArArGrGrCrUrArGrUrCrCrGrUrUrArUrCrAmAmCmUmUmGmAmAmAmAmAmGmUmGmGmCmAmCmCmGmAmGmUmCmGmGmUmGmCmU*mU*mU*mU

Key:
[1] = tested on: human TTR sequence; assay: Liver editing (NGS) after LNP dosing of mice humanized with respect to the TTR gene; format: in vivo, mouse; conditions: LNP Formulation Numbers 1-5, 2 mg/kg total RNA, Cas9 mRNA SEQ ID NO: 2, 1:1 to guide
Method: Unless otherwise noted, CD-1 female mice, ranging from 6-10 weeks of age were used in each study. Animals were weighed and grouped according to body weight for preparing dosing solutions based on group average weight. LNPs were dosed via the lateral tail vein in a volume of 0.2 mL per animal (approximately 10 mL per kilogram body weight). […] Body weight was measured at twenty-four hours post-administration, and animals were euthanized at various time points by exsanguination via cardiac puncture under isoflourane anesthesia. Blood was collected into serum separator tubes or into tubes containing buffered sodium citrate for plasma as described herein. […]
Additional PCR was performed per the manufacturer's protocols (Illumina) to add chemistry for sequencing. […] The reads were aligned to a reference genome (e.g., the human reference genome (hg38), the cynomologus reference genome (mf5), the rat reference genome (rn6), or the mouse reference genome (mm10)) after eliminating those having low quality scores. The resulting files containing the reads were mapped to the reference genome (BAM files), where reads that overlapped the target region of interest were selected and the number of wild type reads versus the number of reads which contain an insertion, substitution, or deletion was calculated. […]

[2] = tested on: TTR on-target site and potential off-target sites; assay: Targeted amplicon sequencing of on-target and potential off-target sites in primary human hepatocytes treated with LNPs; format: cell-based; conditions: PHH; for highest concentration (of gRNA) at which the potential off-target sites were no longer detected: LNP 11 point dose response 0.001-46.55 nM gRNA; for indel rate observed at the on-target site / number of potential off-target sites identified by the oligo insertion assay at which indels were detected (low levels) / indels at the in silico predicted off-target sites: LNP with 100 ng Cas9 mRNA (SEQ ID NO: 1); for indel rate observed at the on-target site: near-saturating dose of LNP; for number of potential off-target sites identified by the oligo insertion assay at which indels were detected (low levels): near-saturating dose; for number of potential off-target sites identified by the oligo insertion assay at which indels were detected (low levels) / indels at the in silico predicted off-target sites / Indel Frequency, On-Target site: targeted amplicon sequencing; for on-target indel rate at the highest gRNA concentration without detected off-target sites: LNP, 0.57 nM (G000480) and 15.51 nM (G000486) gRNA
Method: The HEK293_Cas9 cells used in Example 5 for detecting potential off-targets constitutively overexpress Cas9, leading to a higher number of potential off-target “hits” as compared to a transient delivery paradigm in various cell types. […] Accordingly, potential off-target sites identified by an oligo insertion method as used in Example 5 may be validated using targeted sequencing of the identified potential off-target sites.
In one approach, primary hepatocytes are treated with LNPs comprising Cas9 mRNA and a sgRNA of interest (e.g., a sgRNA having potential off-target sites for evaluation). The primary hepatocytes are then lysed and primers flanking the potential off-target site(s) are used to generate an amplicon for NGS analysis. Identification of indels at a certain level may validate potential off-target site, whereas the lack of indels found at the potential off-target site may indicate a false positive in the HEK293_Cas9 cell assay.
Following the identification of potential off-target sites in […] via the oligo insertion assay, certain potential sites were further evaluated by targeted amplicon sequencing, e.g., as described in Example 6. In addition to the potential off-target sites identified by the oligo insertion strategy, additional potential off-target sites identified by in silico prediction were included in the analysis.
To this end, PHH were treated with LNPs comprising 100 ng of Cas9 mRNA (SEQ ID NO:1) and the gRNA of interest at 14.68 nM (in a 1:1 ratio by weight), as described in Example 4. The LNPs were prepared using the cross-flow procedure described above and purified and concentrated using PD-10 columns and Amicon centrifugal filter units, respectively. The LNPs were formulated with an N:P ratio of 6.0 and contained Lipid A, Cholesterol, DSPC, and PEG2k-DMG in a 50:38:9:2 molar ratio, respectively. Following LNP treatment, isolated genomic DNA was analyzed by NGS (e.g., as described in Examples 1 and 6) to determine whether indels could be detected at the potential off-target site, which would be indicative of a Cas9-mediated cleavage event. Tables 33 and 34 show the potential off-target sites that were evaluated for the gRNAs G000480 and G000486, respectively.
As shown in FIGS. 21A-B and 22A-B and Table 35 below, indels were detected at low levels for only two of the potential off-target sites identified by the oligo insertion assay for G000480, and only one for G000486. […] Further, indels were only detected at these sites using a near-saturating dose of LNP, as the indel rates observed at the on-target sites for G000480 and G000486 were ˜97% and ˜91%, respectively (See Table 35).
A dose response assay was then performed in order to determine the highest dose of LNP in which no off-targets were detected. PHH were treated with LNPs comprising either G000480 or G000486 as described in Example 4. The doses ranged across 11 points with respect to gRNA concentration (0.001 nM, 0.002 nM, 0.007 nM, 0.02 nM, 0.06 nM, 0.19 nM, 0.57 nM, 1.72 nM, 5.17 nM, 15.51 nM, and 46.55 nM).

[3] = LNP with 100 ng Cas9 mRNA and 14.68 nM gRNA

Molecule	liver editing of the human TTR sequence (mean values) [1]	highest concentration (of gRNA) at which the potential off-target sites were no longer detected [2]	indel rate observed at the on-target site [2]	number of potential off-target sites identified by the oligo insertion assay at which indels were detected (low levels) [2]	indels at the in silico predicted off-target sites [2]	Indel Frequency, Off-Target site INS-OT.4 (of G000486) ([2]; LNP with 100 ng Cas9 mRNA and 14.68 nM gRNA, G000486 site INS-OT.4 (chr5: 91397023-91397043))	Indel Frequency, On-Target site [2, 3]	on-target indel rate at the highest gRNA concentration without detected off-target sites [2]	Indel Frequency, Off-Target site INS-OT.2 ([2]; LNP with 100 ng Cas9 mRNA and 14.68 nM gRNA, G000480 site INS-OT.2 (chr2: 192658562-192658582))	Indel Frequency, Off-Target site INS-OT.4 (of G000480) ([2]; LNP with 100 ng Cas9 mRNA and 14.68 nM gRNA, G000480 site INS-OT.4 (chr20: 9216118-9216138))
B1	~60%	–	–	–	–	–	–	–	–	–
B2	–	15.51 nM	~91%	one	No indels were detected	0.47%	91.33%	89.50%	–	–
B3	~60%	–	–	–	–	–	–	–	–	–
B4	–	0.57 nM	~97%	two	No indels were detected	–	97.33%	84.60%	1.43%	0.97%
